Measured values: the RNAGym collection of RNA variant scans (doi:10.7554/elife.80360)

B1: Hairpin Ribozyme (parent)
chain: GUCCUCUUUCACGUGCGCGUGAAAGAGAGAAGUGAACCAGAGAAACACACGUUGUGGUAUAUUACCUGGUA

Variants of: B1
Assay: self-cleavage, relative activity (ratio to wild type); higher = more cleavage; co-transcriptional

Variant | self-cleavage
U8G A30U | 0.186
U2A G32C | 0.0974
G42U U67A | 0.151
A35U G56U | 0.221
A36U A59G | 0.19
U7C G34C | 1.37
U33C A61C | 0.074
G17A A30G | 0.0738
U8C C10A | 0.363
G40U U67C | 0.0949
C3U U7A | 0.427
A35C | 1.02
A24C U62A | 0.3
U63G A64C | 0.191
G19C A41U | 1.11
G21C A39G | 0.225
U5G A31U | 0.0772
G21C U33A | 0.133
A43C A49U | 0.142
A44G A64C | 0.12
A35G A49G | 0.433
G57A U62G | 0.273
A28U A47C | 0.172
G25C G27C | 0.171

Variant | self-cleavage
G32C A71U | 0.157
C10G A49G | 0.343
G15U C48G | 0.213
U5A C50U | 0.291
G34U A71G | 1.58
C6G C12U | 0.332
U20C A26G | 1.06
G21C G42U | 0.379
U63A G69A | 0.153
A36U A61G | 0.156
U2G A24G | 0.293
A28C U53A | 0.39
G51C A59C | 0.14
C16U C65G | 0.26
U20C G54C | 0.373
C4A A28C | 0.0846
G1C U60A | 0.123
U7C A49U | 0.135
A28U G56C | 0.151
C10U U55G | 0.201
G1C U55G | 0.132
A26U U53C | 0.599
G17U G69U | 0.258
A44G U62C | 0.12

Variant | self-cleavage
A22C C66A | 0.216
G19C A24U | 0.533
U2C U9C | 0.139
A59U C65A | 0.19
G34U C38G | 0.595
G57U U67A | 0.166
U7G A31U | 0.216
G13C A45U | 0.0506
U33A A59G | 0.106
G42U G51A | 0.191
U7G G27C | 0.152
G56U U67A | 0.23
G34A A71C | 1.6
C18A U33C | 0.132
A30C C48U | 0.17
C3G U14C | 0.238
U33G U67A | 0.146
U14G A28G | 1.15
A47G C66G | 0.128
G32C G56A | 0.13
C6U G25A | 0.751
A23G C65G | 0.392
C16U C18G | 0.873
U60G A64C | 0.186

Variant | self-cleavage
U9A G19U | 0.558
G57C U67C | 0.114
G29U U55C | 0.0858
U55C A59G | 0.0716
U52C G54C | 0.0624
C18A A43G | 0.085
C4A U62C | 0.118
C10U C18A | 0.956
C3A A49G | 0.426
A28C G42C | 0.109
C10A A49G | 0.357
G29U A31G | 0.167
G42A U60A | 0.0887
G17C A39G | 0.217
A23U C46G | 0.0441
C16U G27U | 0.198
G13U G21A | 0.595
G40C U63G | 0.135
U8G U33C | 0.117
C50U U58A | 0.194
G25U A41U | 1.08
A44C G68A | 0.103
G13C G34U | 1.1
U14A U53C | 1.07

Variant | self-cleavage
A28G A61U | 0.182
C3U A28G | 0.554
U7A A24G | 0.702
U20A G29C | 0.203
A22G G42C | 0.365
U52G A64C | 0.0463
U2A A41G | 0.0798
G27U C38U | 0.157
C16U A22C | 0.899
A47C G69U | 0.0997
C18A C48A | 0.14
G17C G54A | 0.36
A23U U55A | 0.255
G17A C37G | 0.332
U14G A61U | 0.2
C12U A35C | 0.975
C16U C48A | 0.114
G27A A41U | 0.744
C37G U60G | 0.245
C6G G15C | 0.545
A49G C66U | 0.258
G25A A39G | 0.192
A28U A61G | 0.0909
A30U A49C | 0.111

Variant | self-cleavage
U63G U67A | 0.159
A45G U63G | 0.226
G13A | 0.87
G27A U52A | 0.337
A11G C38G | 0.188
C3U A64U | 0.238
C37A G42U | 0.165
C48G U52G | 0.225
G1C A49C | 0.159
A11C G42U | 0.214
G15A A31G | 0.586
U14G G42C | 0.101
C3A A11C | 0.618
G1A U63G | 0.284
G42U U70C | 0.162
C38A G57C | 0.157
A44C U63G | 0.182
C16U A39G | 0.326
A35C G54U | 0.56
G51A G68U | 0.474
C6U G34A | 0.863
A45C C46A | 0.152
G40C A43U | 0.128
A49C U70A | 0.157

Variant | self-cleavage
U14G A45G | 0.0744
C16U U67C | 0.283
U7G U60C | 1.12
A43C U67A | 0.0731
G54C G56C | 0.286
A22C G25A | 0.247
C3U A22C | 0.491
U60G A64G | 0.335
A43G U52A | 0.202
U9G | 0.701
U5A C46A | 0.16
U5A A47C | 0.187
C12G A23G | 0.853
A24U A30C | 0.332
A64G U70G | 0.47
C37G A41G | 0.369
U14C A23C | 0.693
A11U U14G | 0.536
U2A C6G | 0.247
A49C A64U | 0.178
A30G C50U | 0.0809
G40U C66U | 0.223
A22U G42C | 0.325
A28G A64C | 0.165

Variant | self-cleavage
C16A G32U | 0.226
A71U | 0.796
U5A G27C | 0.187
A31C U58C | 0.247
C48A A49C | 0.155
A36U G57U | 0.209
A49C U63A | 0.0427
U5A U53A | 0.221
U5A G40U | 0.101
G15U G27A | 0.432
G25A A41U | 0.85
A11U A44C | 0.216
C3A U58C | 0.811
C18A C66G | 0.113
G1A A11G | 0.0942
A41C U70G | 0.91
G19A G42U | 0.331
U20A G29U | 0.165
G21A A61G | 0.116
A31U U70A | 0.0877
U55C G68A | 0.166
C38A A39U | 0.206
A35C U55A | 0.177
C37G G51U | 0.405

Variant | self-cleavage
G21U U53A | 0.836
G27U A47G | 0.222
A22U A30C | 0.223
C18U G32A | 0.124
U7G A31G | 0.503
G27A G57A | 0.145
G13C G25A | 0.448
A35C G42U | 0.342
A30C U62C | 0.0331
G29C U67A | 0.179
C4G G40C | 0.164
U52A U63G | 0.121
C12U G29A | 0.164
G25A G57U | 0.113
C6U C18U | 0.82
G15U A24G | 1.12
A47C U55A | 0.195
U33A A71G | 0.178
G34C U63G | 0.262
C18G A28U | 0.5
A39U U62A | 0.126
A26U U67G | 0.2
G15U C37G | 0.339
G21A G32A | 0.193

Variant | self-cleavage
U20A A31U | 0.148
A26C G69C | 0.212
A22U U67G | 0.295
U20A A64U | 0.135
A28G A31U | 0.0204
A35U G57U | 0.311
C6A U62G | 0.0891
C18G C65G | 0.212
G42U G68C | 0.152
U20C U60C | 0.724
U2C C48A | 0.0257
C6G C65A | 0.527
C18A U33G | 0.15
U58C U70C | 0.945
C10U A43G | 0.113
C10G U67G | 0.205
G42C C65A | 0.21
G40C A64G | 0.129
C3U A49U | 0.214
U8G G54A | 0.456
G19C G56U | 0.0712
G13A A61U | 0.136
A41U C46G | 0.133
U9G A45G | 0.205

Variant | self-cleavage
G1U A26C | 0.103
G1A G42A | 0.122
A11G U52G | 0.681
C3U G19A | 0.443
A44C U55A | 0.0312
A44C C66A | 0.215
C4U U8G | 0.204
G25C A44C | 0.174
G42U A43U | 0.108
C18A A49U | 0.264
U33G G68U | 0.0922
C37G A45U | 0.188
A36C G54A | 0.467
U7A G40U | 0.18
C16G G54A | 0.485
A30C G54A | 0.107
G17C A49G | 0.409
U8C C12A | 0.164
U67G U70C | 0.588
G15A A43G | 0.155
A22U A28C | 0.561
U5C G17A | 0.644
G25C A61G | 0.115
C16U G21A | 0.843

Variant | self-cleavage
A24C U55G | 0.266
A11C G19A | 0.741
U8C G54U | 0.453
G1A A24C | 0.18
C18G A23G | 0.84
U14G C50U | 0.2
G32A G40C | 0.156
C4A A45U | 0.148
C10U A39C | 0.458
C12A C18A | 0.812
C18G U62G | 0.163
A41G G54C | 0.672
C16U A43C | 0.174
C37A A43G | 0.0981
U8A A61U | 0.191
U53A C66A | 0.205
G15C A22U | 1.01
G1A A43C | 0.144
G32C G68C | 0.112
A28C G34C | 1.5
A43C A71C | 0.26
G34U A43C | 0.0997
U14A C48G | 0.196
C37A U58G | 0.269

Variant | self-cleavage
U7G A64C | 0.24
G27U G51A | 0.307
A31U A35U | 0.162
U52C U63A | 0.206
G34C A49G | 1.42
G1C A41C | 0.411
A47G G51C | 0.221
C18U A39C | 0.66
C38G C48U | 0.108
U5G A44U | 0.093
U2G U8A | 0.295
C18G A61G | 0.152
C18U U53G | 0.644
U7C U53A | 1.3
U33A G51U | 0.129
A22C U33A | 0.0448
C50U U67C | 0.157
C18G A61C | 0.201
A22C U55G | 0.173
U20A U58G | 0.762
A26C G68A | 0.117
U2C G40U | 0.103
G42U G57U | 0.187
U33A C65U | 0.238

Variant | self-cleavage
G32A C48A | 0.128
C38U A71G | 0.681
U9C G69C | 0.136
A36U G51C | 0.446
U2C U60G | 0.226
C3G A11U | 0.28
C46U G56A | 0.138
A11C C18U | 0.94
G27C A28U | 0.138
A24U C65G | 0.302
C18A G56A | 0.158
A24G U62A | 0.316
G57U U62A | 0.0927
C38G G42A | 0.103
G13A G17A | 0.747
A26U U58C | 0.657
A26U A47C | 0.151
A28G C66G | 0.0858
U9G G40A | 0.179
C48A U63G | 0.229
G29U A36G | 0.275
C18A G29U | 0.198
